Tests used:
Myc-human Hsp90beta [1] = target: T1, Myc-human Hsp90beta (human, UniProt P08238 1-724); assay: anti-Flag co-immunoprecipitation from cotransfected HEK293T, western blot anti-myc
T1 construct: also called myc-Hsp90beta; myc-tagged Hsp90beta; not shown: N-terminal myc tag of pCMV-3Tag2

Myc-human Hsp90beta [2] = target: T1, Myc-human Hsp90beta; assay: anti-Flag co-immunoprecipitation from cotransfected HEK293T, western blot anti-myc (FIG. 2C)

T1 sequence (P08238 whole entry): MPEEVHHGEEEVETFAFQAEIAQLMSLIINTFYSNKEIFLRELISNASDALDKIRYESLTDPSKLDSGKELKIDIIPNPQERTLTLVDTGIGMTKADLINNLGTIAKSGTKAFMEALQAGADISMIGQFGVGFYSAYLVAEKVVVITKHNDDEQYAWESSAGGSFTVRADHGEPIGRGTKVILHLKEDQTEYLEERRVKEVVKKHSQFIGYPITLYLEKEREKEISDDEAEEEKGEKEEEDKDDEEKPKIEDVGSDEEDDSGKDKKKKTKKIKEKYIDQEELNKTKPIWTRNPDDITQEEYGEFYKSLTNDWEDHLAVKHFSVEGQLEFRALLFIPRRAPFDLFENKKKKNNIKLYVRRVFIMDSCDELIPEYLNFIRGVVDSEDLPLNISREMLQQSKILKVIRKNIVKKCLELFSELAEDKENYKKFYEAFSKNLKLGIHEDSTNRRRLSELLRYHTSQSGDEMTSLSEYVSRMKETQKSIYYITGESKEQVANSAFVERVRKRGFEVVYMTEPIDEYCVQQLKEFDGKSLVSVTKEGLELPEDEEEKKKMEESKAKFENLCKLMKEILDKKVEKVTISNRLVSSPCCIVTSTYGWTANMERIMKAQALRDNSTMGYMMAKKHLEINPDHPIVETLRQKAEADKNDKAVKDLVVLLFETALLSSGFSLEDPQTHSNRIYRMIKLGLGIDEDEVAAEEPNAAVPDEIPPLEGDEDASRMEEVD

Binder	binding result (Myc-human Hsp90beta [1])	binding result (Myc-human Hsp90beta [2])
Flag-tagged rat APOBEC1 (enzyme, UniProt P38483 1-229, looked up, also called A1; not shown: N-terminal Flag tag (annealed oligonucleotides AO1 and AO2)) MSSETGPVAVDPTLRRRIEPHEFEVFFDPRELRKETCLLYEINWGGRHSIWRHTSQNTNKHVEVNFIEKFTTERYFCPNTRCSITWFLSWSPCGECSRAITEFLSRYPHVTLFIYIARLYHHADPRNRQGLRDLISSGVTIQIMTEQESGYCWRNFVNYSPSNEAHWPRYPHLWVRLYVLELYCIILGLPPCLNILRRKQPQLTFFTIALQSCHYQRLPPHILWATGLK	no binding	–
Flag-tagged APOBEC2 (enzyme, UniProt Q9Y235 1-224, looked up, also called A2; not shown: N-terminal Flag tag (annealed oligonucleotides AO1 and AO2)) MAQKEEAAVATEAASQNGEDLENLDDPEKLKELIELPPFEIVTGERLPANFFKFQFRNVEYSSGRNKTFLCYVVEAQGKGGQVQASRGYLEDEHAAAHAEEAFFNTILPAFDPALRYNVTWYVSSSPCAACADRIIKTLSKTKNLRLLILVGRLFMWEEPEIQAALKKLKEAGCKLRIMKPQDFEYVWQNFVEQEEGESKAFQPWEDIQENFLYYEEKLADILK	no binding	–
AID-APOBEC2 chimera #1 (enzyme, range 60-96; Flag-tagged in the HEK293T co-immunoprecipitation; also called AID-A2 #1; not shown: its end of the chain and its l) MDSLLMNRRKFLYQFKNVEYSSGRNKTFLCYVVEAQGKGGQVQASRGYLEDEHAAELLFLRYISDWDLDPGRCYRVTWFTSWSPCYDCARHVADFLRGNPNLSLRIFTARLYFCEDRKAEPEGLRRLHRAGVQIAIMTFKDYFYCWNTFVENHERTFKAWEGLHENSVRLSRQLRRILLPLYEVDDLRDAFRTLGL	–	no binding

From US20110237560A1 (published 2011)
